Experimental data as given in patent US8257949B2, “Self-priming polysialyltransferase” (National Research Council of Canada, priority 2006, dated 2012).

Columns and labels:
Type in all cases: biochemical
[1] = PST-17 time course on disaccharide acceptor; conditions: single addition of enzyme, fixed donor concentration
Protocol: A comparison of acceptors substrates was performed using Lactose, N-acetyllactosamine, and Gal-β-1,3-GalNAc-α (T-Ag) disaccharide acceptors. […] See, e.g., FIG. 7.

[2] = Polysialic acid synthesis, fusion protein versus mixture of unfused parent enzymes; conditions: T-Ag-containing glycopeptides
Description: FIG. 9 provides a comparison of polysialic acid synthesis activity using a mixture of unfused Cst-II and PST-13 enzymes or the PST-17 fusion enzyme. The sialic acid acceptor was the glycopeptide interferon α2b-[TAg]-FCHASE. FIG. 9A is the unfused enzyme mixture: CST-81 and PST-13. FIG. 9B is the PST-17 fusion enzyme. Figure legend: IFNα2b-[TAg]-FCHASE (Starting material) (▪); +1 NeuAc ( ? ); +2 NeuAc (□); +3 NeuAc ( ? ); +4 NeuAc ( ? ); >4 NeuAc (▪).
In order to evaluate whether the fusion protein functions more efficiency than the unfused parent enzymes mixed together, we performed experiments where we controlled the stoichiometry of the individual sialyltransferases. The stoichiometry of the mixtures was calculated using gel densitometry. Care was taken not to overload the gels so that the protein bands were not saturated. Gels were stained with SYPRO Orange and protein was quantitated with software provided with Imager system. Reactions contained 4 μM enzyme based on the percentage present in the separate preparations.
See, e.g., FIG. 9. Although less striking, similar results were obtained using a mono-sialylated T-Ag-glycopeptide (S-T-Ag-glycopeptide) acceptor also. See, e.g., FIG. 10.

[3] = Comparison of PST-16 and PST-17 sialic acid polymerization, CE analysis; conditions: for formation of long sialic acid polymers: CE analysis; for amount of polysialic acid relative to all other sialylated species: Lac-FCHASE acceptor, FIG. 5
Description: The dotted line represents PST-16; the solid line represents PST-17. Arrows indicate the positions of Lactose (lac), GD3, GQ4, and polysialylated products conjugated to more than four sialic acid residues. The amount of polysialic acid relative to all other sialylated species ([…] sialic acid moieties) is about 50% in for each reaction.
Sialylation of the starting material: (▪), +1 NeuAc; ( ? ), +2 NeuAc; (□), +3 NeuAc; ( ? ), 4 NeuAc; ( ? ), >4 NeuAc (▪). 6A is PST-16 with Lac-FCHASE substrate. 6B is PST-17 with Lac-FCHASE substrate. 6C is PST-16 with T-Ag-FCHASE substrate. 6D is PST-17 with T-Ag-FCHASE substrate.
A fusion of Cst-II from C. jejuni OH4384 and the E. coli PST protein (PST-16) was generated and compared to the and N. meningitidis fusion (PST-17). Enzymatic activities of the two fusion proteins were determined and compared. […] See, e.g., FIGS. 5 and 6.

[4] = Activity of self-priming poly-sialyltransferase proteins in E. coli supernatant or pellet, CE assay; design: Specific Activity: unit not given here; conditions: for Activity / Specific Activity: 24 hour sample; for Percent GM3: FCHASE-GM3 found in the product
Protocol: The self-priming poly-sialyltransferase proteins were expressed in E. coli cells and growth conditions for optimal protein expression were determined. Similar results were obtained for all three fusions; therefore, results are shown only for the PST-17 fusion. Cells were grown at 20° C., 25° C. and 30° C. for four different time periods. Aliquots of 1.5 mL were harvested, sonicated, and then centrifuged at 10,000×g for 10 mm. Expression of the self-priming poly-sialytransferase proteins increased with time at all […] temperatures.
Enzymatic activities of the self-priming poly-sialytransferase proteins were confirmed. Only the 24 hour samples of FIG. 4 were assayed Assays were done using the following reaction mixture: 0.5 mM FCHASE-Lac, 50 mM NaHEPES pH 7.5, 10 mM MgCl2, 5 mM CMP-NeuAc and 50% volume bacterial supernatant or pellet Reactions were incubated at 37° C. for 10 min and analyzed by capillary electrophoresis. […] For example, in the PST-17 20° C. supernatant, 9% of the substrate is converted into product, but most product is FCHASE-GM3. In contrast, in the PST-21 20° C. supernatant, 7% of the substrate is converted into product with 68% FCHASE-GM3, the remaining products containing longer sialic acid polymers. […] The highest levels of activity are shown in bold font.

[5] = Poly-sialylation of glycopeptide acceptor by PST17, TLC and CE analysis
Protocol: The control reaction lacked CMP-sialic acid. […] Disialylated products and products with more than 45 sialic acid residues are indicated with arrows.
The poly-sialyltransferase of PST17 was tested using a partially glycosylated IFNα2b[GalNAc-Gal-NeuAc]-FCHASE glycopeptide. Assay conditions were as follows: 50 mM NaHEPES pH 7.5, 5 mM MnCl2, 5 mM MgCl2, 5 mM CMP-NeuAc, 0.0684 mM IFNα2b[GalNAc-Gal-NeuAc]-FCHASE glycopeptide. Reactions were incubated at 37° C. for 1 hour and 2 hours. […] After 1 hour incubation at 37° C. there is 49.9% conversion to sialylated product and after 2 hours there is 62.5% conversion to sialylated product. […] A glycopeptide acceptor was also a very good acceptor for the PST-17 fusion protein, and long PSA polymers could be seen in CE analysis of those reactions. (Data not shown.) The glyco-peptide acceptors, NH2-VGVT[GalNAc-α-]ETP-COOH (SEQ ID NO:32), were obtained from Sussex Research Laboratories (Ottawa, Canada) and then N-terminally labelled with FCHASE as described for the amino-phenyl glycosides.

B1: PST-17: truncated CstII from OH4384 fused to the Neisseria Pst, SEQ ID NO:2 (protein)
chain: MKKVIIAGNGPSLKEIDYSRLPNDFDVFRCNQFYFEDKYYLGKKCKAVFYNPSLFFEQYYTLKHLIQNQEYETELIMCSNYNQAHLENENFVKTFYDYFPDAHLGYDFFKQLKDFNAYFKFHEIYFNQRITSGVYMCAVAIALGYKEIYLSGIDFYQNGSSYAFDTKQKNLLKLAPNFKNDNSHYIGHSKNTDIKALEFLEKTYKIKLYCLCPNSLLANFIELAPNLNSNFIIQEKNNYTKDILIPSSEAYGKFSKNINFGGGHMLKKIKKALFQPKKFFQDSMWLTTSPFYLTPPRNNLFVISNLGQLNQVQSLIKIQKLTNNLLVILYTSKNLKMPKLVHQSANKNLFESIYLFELPRSPNNITPKKLLYIYRSYKKILNIIQPAHLYMLSFTGHYSYLISIAKKKNITTHLIDEGTGTYAPLLESFSYHPTKLERNLIGNNLNIKGYIDHFDILHVPFPEYAKKIFNAKKYNRFFAHAGGISINNNIANLQKKYQISKNDYIFVSQRYPISDDLYYKSIVEILNSISLQIKGKIFIKLHPKEMGNNYVMSLFLNMVEINPRLVVINEPPFLIEPLIYLTNPKGIIGLASSSLIYTPLLSPSTQCLSIGELIINLIQKYSMVENTEMIQEHLEIIKKFNFINILNDLNGVISNPLFKTEETFETLLKSAEFAYKSKNYFQAIFYWQLASKNNITLLGHKALWYYNALYNVKQIYKMEYSDIFYIDNISVDFHSKDKLTWEKIKHYYYFADNRIGRDR
With B1 as the molecule, how does the Lac-FCHASE consumed [1] read?
The Lac-FCHASE consumed was “essentially all”.

What about the T-Ag material consumed [1] of the same molecule?
Its T-Ag material consumed is 72%.

What about the “polysialic acid product relative to the combination of unfused parent enzymes” value [2] of the same molecule?
Its value is “four times as much”.

What about the “polysialic acid product (PSA)” value ([2]; 4 μM enzyme) of the same molecule?
The value was 17%.

And the “formation of long sialic acid polymers” value [3]?
The value was “formation of long polymers happens from the earliest time points”.

What about the “amount of polysialic acid relative to all other sialylated species” value [3] of the same molecule?
Its value is “about 50%”.

And the “substrate converted into product” value ([4]; 20° C. supernatant, 37° C. for 10 min)?
The value was 9%.

What about the Activity ([4]; 20° C., P (pellet)) of the same molecule?
Its Activity is 3.270 mU/mL.

And the “Specific Activity” value ([4]; 20° C., P (pellet))?
Its value is 8.959.

And the “Percent GM3” value ([4]; 20° C., P (pellet))?
Its value is 98%.

What about the Activity ([4]; 20° C., S (supernatant)) of the same molecule?
Its Activity is 5.570 mU/mL.

What about the “Specific Activity” value ([4]; 20° C., S (supernatant)) of the same molecule?
Its value is 2.637.

What about the “Percent GM3” value ([4]; 20° C., S (supernatant)) of the same molecule?
The value was 88%.

What about the Activity ([4]; 25° C., P (pellet)) of the same molecule?
Its Activity is 9.329 mU/mL.

What about the “Specific Activity” value ([4]; 25° C., P (pellet)) of the same molecule?
Its value is 11.945.

What about the “Percent GM3” value ([4]; 25° C., P (pellet)) of the same molecule?
Its value is 59%.

And the Activity ([4]; 25° C., S (supernatant))?
The Activity was 8.192 mU/mL.

And the “Specific Activity” value ([4]; 25° C., S (supernatant))?
Its value is 3.378.

And the “Percent GM3” value ([4]; 25° C., S (supernatant))?
Its value is 67%.

And the Activity ([4]; 30° C., P (pellet))?
Its Activity is 13.355 mU/mL.

What about the “Specific Activity” value ([4]; 30° C., P (pellet)) of the same molecule?
Its value is 15.228.

And the “Percent GM3” value ([4]; 30° C., P (pellet))?
The value was 51%.

And the Activity ([4]; 30° C., S (supernatant))?
The Activity was 3.976 mU/mL.

What about the “Specific Activity” value ([4]; 30° C., S (supernatant)) of the same molecule?
The value was 1.893.

And the “Percent GM3” value ([4]; 30° C., S (supernatant))?
The value was 58%.

What about the “conversion to sialylated product” value ([5]; 1 hour incubation at 37° C.) of the same molecule?
The value was 49.9%.

And the “conversion to sialylated product” value ([5]; 2 hours at 37° C.)?
The value was 62.5%.

What about the “sialic acid residues on products” value ([5]; CE analysis, FIG. 8) of the same molecule?
Its value is “more than 45”.

B2: PST-16: fusion of Cst-II from C. jejuni OH4384 and the E. coli PST protein, SEQ ID NO: 15 (protein)
chain: MKKVIIAGNGPSLKEIDYSRLPNDFDVFRCNQFYFEDKYYLGKKCKAVFYNPSLFFEQYYTLKHLIQNQEYETELIMCSNYNQAHLENENFVKTFYDYFPDAHLGYDFFKQLKDFNAYFKFHEIYFNQRITSGVYMCAVAIALGYKEIYLSGIDFYQNGSSYAFDTKQKNLLKLAPNFKNDNSHYIGHSKNTDIKALEFLEKTYKIKLYCLCPNSLLANFIELAPNLNSNFIIQEKNNYTKDILIPSSEAYGKFSKNINFGGGHMIFDASLKKLRKLFVNPIGFFRDSWFFNSKNKAEELLSPLKIKSKNIFIISNLGQLKKAESFVQKFSKRSNYLIVLATEKNTEMPKIIVEQINNKLFSSYKVLFIPTFPNVFSLKKVIWFYNVYNYLVLNSKAKDAYFMSYAQHYAIFVYLFKKNNIRCSLIEEGTGTYKTEKENPVVNINFYSEIINSIILFHYPDLKFENVYGTYPILLKKKFNAQKFVEFKGAPSVKSSTRIDNVIHKYSITRDDIIYANQKYLIEHTLFADSLISILLRIDKPDNARIFIKPHPKEPKKNINAIQKAIKKAKCRDIILITEPDFLIEPVIKKAKIKHLIGLTSSSLVYAPLVSKRCQSYSIAPLMIKLCDNDKSQKGINTLRLHFDILKNFDNVKILSDDITSPSLHDKRIFLGE
Which “consumption of the acceptor” value [3] does the source give for B2 here?
Its value is “consumed completely”.

And the “formation of long sialic acid polymers” value [3]?
The value was “did not detect formation of long sialic acid polymers”.

What about the “amount of polysialic acid relative to all other sialylated species” value [3] of the same molecule?
Its value is “about 50%”.
